Experimental findings from patent publication US20210246191A1 (BIONTECH, published 2021) are described below.

The target of assay [1] is FN-67B89 (recombinant human fibronectin EDB flanked by its surrounding type III domains, C-terminal hexahistidine tag) (human) (UniProt P02751). Put plainly: SPR, biotinylated FN-67B89 on streptavidin sensor, 50-4000 nM, 1:1 Langmuir fit. (In general: SPR reads the build-up and loss of mass on a sensor chip optically.)
The target is the same in assay [2]. Put plainly: SPR, biotinylated FN-67B89 on streptavidin sensor, 62.5-4000 nM, 1:1 Langmuir fit.
Assay [3] shares this target. Kind of assay: SPR single cycle kinetics, biotinylated FN-67B89 on streptavidin chip, 1.25-10 nM, 1:1 Langmuir fit.
The target in another assay is T1, bovine serum albumin (bovine, UniProt P02769 25-607).
T1 construct: Control protein coated in ELISA; also called BSA
T1 sequence (P02769 25-607 limits assumed): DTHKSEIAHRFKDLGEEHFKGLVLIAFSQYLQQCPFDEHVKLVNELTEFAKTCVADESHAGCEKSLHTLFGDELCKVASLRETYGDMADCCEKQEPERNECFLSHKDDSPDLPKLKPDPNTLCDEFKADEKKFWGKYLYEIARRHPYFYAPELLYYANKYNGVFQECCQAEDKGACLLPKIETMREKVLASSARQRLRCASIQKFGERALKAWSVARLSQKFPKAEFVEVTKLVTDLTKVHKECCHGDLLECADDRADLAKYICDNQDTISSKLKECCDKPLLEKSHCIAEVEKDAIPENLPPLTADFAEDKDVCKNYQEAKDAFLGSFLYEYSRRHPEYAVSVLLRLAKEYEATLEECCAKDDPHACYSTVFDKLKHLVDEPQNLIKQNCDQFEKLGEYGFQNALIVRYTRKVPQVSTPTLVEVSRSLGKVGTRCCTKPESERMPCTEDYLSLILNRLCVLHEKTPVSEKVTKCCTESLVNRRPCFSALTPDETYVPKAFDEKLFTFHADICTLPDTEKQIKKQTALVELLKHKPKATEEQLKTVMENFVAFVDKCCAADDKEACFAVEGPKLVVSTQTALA
Put plainly: ELISA, 200 nM Trx-miniprotein on coated protein (1 µg/well), duplicates. The method, then:
FIG. 5: Extended specificity analysis of Trx-cystine-knot miniprotein clones MCopt 1.0-2/-3 and MCopt 2.0-1/-2/3. […] ELISA was performed in duplicates, error bars represent standard deviation and Trx-MC-Myc-010 served as negative cystine-knot miniprotein control.
(§1) ELISA was used as technique to analyze protein-protein interactions. Cavities of 96-well microtiter plates (Nunc MaxiSorp™, Thermo Fisher Scientific) were coated with 1 μg FN-B, bovine serum albumin (BSA, Eurobio), milk powder, streptavidin (Sigma Aldrich), T7-His-TEV-B (LD BioPharma), FN-B(8-14) (R&D Systems), lysozyme, ovalbumin (GE Healthcare Life Science), aldolase (GE Healthcare Life Science) or 0.6 μg anti-c-myc-antibody (M4439, Sigma) overnight at 4° C. The wells were washed three times with PBS-T (1×PBS with 0.1% (w/v) Tween-20), blocked with 1× Casein buffer (Sigma Aldrich) diluted in PBS for 2 h at RT and washed again as described. […] After three times of washing with PBS-T, binding of the respective variant was detected with a horseradish peroxidase (HRP)-conjugated anti-S-tag antibody (ab18589 or ab19324, Abeam). Enzymatic reaction was measured with TMB as a chromogenic substrate and stopped with 0.2 M HCl after approximately 5 min. The measurement of absorbance at 450 nm was performed using an Infinite M200 PRO Microplate Reader (Tecan).
(In an ELISA, binding on a coated surface is turned into a signal by an enzyme label.)

For assay [4], the target named is T2, FN-B (recombinant human fibronectin EDB as a single domain, C-terminal hexahistidine tag) (human, UniProt P02751 1266-1356, Biotinylated on primary amines only for the phage screening; coated unmodified in the ELISAs).
T2 construct: Made in E. coli (pET-21a); Residue numbers count on isoform 7 of P02751; Biotinylated on primary amines for the phage screening; also called Fibronectin Extra Domain B; single domain FN-B
T2 sequence (P02751 other isoform, or with tags, fused parts or gaps limits assumed): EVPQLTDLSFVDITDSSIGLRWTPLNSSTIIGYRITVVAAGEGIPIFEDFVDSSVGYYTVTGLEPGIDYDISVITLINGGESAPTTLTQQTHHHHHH
Put plainly: ELISA titration of Trx-miniprotein on coated protein (1 µg/well), HRP anti-S-tag antibody, duplicates [continued), panel MCopt 1.0-3]. The method, then: (§2) FIG. 6: Saturation-binding curves of MCopt 1.0-2/-3 and MCopt 2.0-1/-2/-3 EDB binding. […] Binding of Trx-cystine-knot miniproteins was detected with an HRP-conjugated anti-s-tag-antibody. ELISAs were performed in duplicates (single values for FN-B(8-14)).
as §1

The target of assay [5] is T3, FN-B(8-14) (R&D Systems), EDB with C-terminal domains 8-13 and 1/2 of domain 14 (UniProt P02751 1265-1908).
T3 construct: domain: EDB with C-terminal domains 8-13 and 1/2 of domain 14; Bought
T3 sequence (P02751 1265-1908 limits assumed): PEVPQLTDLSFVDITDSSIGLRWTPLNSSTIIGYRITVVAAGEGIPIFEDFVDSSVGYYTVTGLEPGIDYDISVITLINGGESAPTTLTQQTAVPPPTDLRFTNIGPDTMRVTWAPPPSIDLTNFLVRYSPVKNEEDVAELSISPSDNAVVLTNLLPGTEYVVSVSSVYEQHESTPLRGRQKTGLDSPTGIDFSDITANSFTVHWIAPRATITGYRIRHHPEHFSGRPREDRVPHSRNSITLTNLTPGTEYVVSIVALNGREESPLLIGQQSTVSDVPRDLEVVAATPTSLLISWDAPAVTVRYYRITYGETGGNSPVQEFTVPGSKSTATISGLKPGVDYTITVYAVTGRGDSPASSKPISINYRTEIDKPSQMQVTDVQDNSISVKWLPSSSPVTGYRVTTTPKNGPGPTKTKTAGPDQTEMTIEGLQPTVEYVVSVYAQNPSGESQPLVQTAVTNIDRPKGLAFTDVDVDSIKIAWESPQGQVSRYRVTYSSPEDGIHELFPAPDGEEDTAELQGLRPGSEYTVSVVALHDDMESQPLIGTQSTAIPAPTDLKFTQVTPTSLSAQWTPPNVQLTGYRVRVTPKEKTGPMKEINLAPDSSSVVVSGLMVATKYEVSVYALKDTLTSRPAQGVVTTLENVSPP
Kind of assay: ELISA titration of Trx-miniprotein on coated protein (1 µg/well), HRP anti-S-tag antibody, single values [continued), panel MCopt 1.0-3]. The method, then:
as §2, §1

Assay [6] deals with FN-67B89 (recombinant human fibronectin EDB flanked by its surrounding type III domains, C-terminal hexahistidine tag) (human) (UniProt P02751). Kind of assay: ELISA titration of Trx-miniprotein on coated protein (1 µg/well), HRP anti-S-tag antibody, duplicates [continued), panel MCopt 1.0-3].
Assay [7] shares this target. Kind of assay: SPR, biotinylated FN-67B89 on streptavidin sensor, 1.25-10 nM, 1:1 Langmuir fit.
Assay [8] deals with T2, FN-B (recombinant human fibronectin EDB …). Put plainly: ELISA, Trx fusion 50 to 1.563 nM on coated FN-B, HRP anti-S-tag antibody; relative binding from apparent binding constants against parental MC-FN-010, three assays.
For assay [9], the target named is T4, FN-6789 (recombinant human fibronectin type III domains 6-9 without EDB, C-terminal hexahistidine tag) (human, UniProt P02751-1 1085-1446, limits assumed).
T4 construct: domain: domains 6-9 without EDB; Control protein
T4 sequence (P02751 other isoform, or with tags, fused parts or gaps limits assumed): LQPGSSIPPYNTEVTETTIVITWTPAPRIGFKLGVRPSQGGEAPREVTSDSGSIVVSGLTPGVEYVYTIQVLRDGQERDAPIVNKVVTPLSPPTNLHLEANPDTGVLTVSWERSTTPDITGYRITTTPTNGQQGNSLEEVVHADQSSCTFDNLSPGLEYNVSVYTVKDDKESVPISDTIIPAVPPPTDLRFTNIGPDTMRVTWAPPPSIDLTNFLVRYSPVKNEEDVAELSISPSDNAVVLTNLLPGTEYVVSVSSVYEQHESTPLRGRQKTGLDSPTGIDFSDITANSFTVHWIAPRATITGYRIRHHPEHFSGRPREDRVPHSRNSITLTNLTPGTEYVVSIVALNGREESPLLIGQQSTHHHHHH
Kind of assay: ELISA, 1.56 to 50 nM Trx-miniprotein on 1 µg coated protein per well, 50 ng HRP anti-S-tag antibody, duplicates.

Bridge positions count the residues as written; N and C are the ends. Ends that are not written are not given here.

B1: MC-FN-010 (tag-free cystine-knot miniprotein) (designed binder)
chain: PMCTQRKNRIRLCRRDSDCTGACICRGNGYCG
modifications: disulfide 13-25; disulfide (positions not given here); not fully specified (bridges)
One may read the Kd as the equilibrium constant for the complex coming apart. As a reminder, the koff is the first-order rate constant of dissociation. As a reminder, the kon is a measure of how fast the partners come together. As to B1, in assay [1], the dissociation constant Kd was 1580 nM, the koff was 0.0783 s⁻¹ and the association rate constant (kon) amounted to 49500 M⁻¹ s⁻¹.

B2: MC-FN-016 (tag-free cystine-knot miniprotein) (designed binder)
chain: PMCTQRANRIRLCRRDSDCTGACICRGNGYCG
modifications: disulfide 13-25; disulfide (positions not given here); not fully specified (bridges)
As for B2, in [2], the Kd turned out to be 1410 nM, the dissociation rate constant (koff) was 0.187 s⁻¹ and the association rate constant (kon) worked out at 133000 M⁻¹ s⁻¹.

B3: AF680-(MC-FN-010)3 (trimeric MC-FN-010 conjugated with Alexa Fluor 680) (designed binder)
peptide: PMCTQRKNRIRLCRRDSDCTGACICRGNGYCG
modifications: ends and bridges not checked; also: trimer via oxime ligation, Alexa Fluor 680 label
As for B3, in assay [3], the Kd worked out at 0.431 nM, the off-rate (koff) amounted to 0.00347 s⁻¹ and the kon came out at 8.04e+06 M⁻¹ s⁻¹.

B4: AF680-(MC-FN-016)3 (trimeric MC-FN-016 conjugated with Alexa Fluor 680) (designed binder)
peptide: PMCTQRANRIRLCRRDSDCTGACICRGNGYCG
modifications: ends and bridges not checked; also: trimer via oxime ligation, Alexa Fluor 680 label
In the case of B4, in assay [3], the Kd stood at 0.902 nM, the koff was 0.00231 s⁻¹ and the kon stood at 2.56e+06 M⁻¹ s⁻¹.

B5: Trx-MC-FN-010 (thioredoxin fusion of cystine-knot miniprotein MC-FN-010) (designed binder)
chain: PMCTQRKNRIRLCRRDSDCTGACICRGNGYCG
modifications: not fully specified; cysteine pairing not given here; also: fused to E. coli thioredoxin with His6-tag, S-tag and thrombin site
notes: also called Trx-MCopt 1.0-3; MCopt 1.0-3; not shown: E. coli thioredoxin-A, fusion partner from vector pET-32-LibEx; H6-tag, s-tag and thrombin cleavage site of pET-32-LibEx
As usually defined, the EC50 (read off the curve) is the concentration that produces a half-maximal response. B5: the binding result with bovine serum albumin is “no binding (tested: 200 nM)”. Also, the “EC50 (read off the curve)” value in [4] is ~4 nM; in [5] it was ~10 nM; in assay [6], 10 nM.

On to PMCTQRANRIRLCRRDSDCTGACICRGNGYCG (designed binder, ends and bridges not checked; also: trimer, DOTA on trimer, site not given here) [DOTA-(MC-FN-016)3 (unlabeled trimeric probe)], for which, in [7], the dissociation constant (Kd) worked out at 0.624 nM, the koff was 0.00226 s⁻¹ and the kon stood at 3.73e+06 M⁻¹ s⁻¹.

B6: Trx-MC-FN-019 (designed binder, not shown: large carriers; small tags and cut ends)
chain: PMCTQRKNRARLCRRDSDCTGACICRGNGYCG
modifications: disulfide 13-25, 19-31, 3-23; also: N-terminal thioredoxin fusion carrier (Trx, H6-tag, S-tag, thrombin site), no letters given
notes: alanine scan variant of MC-FN-010
In the case of B6, the binding result in [8] is reported as “no binding (tested: 50 nM)”.

B7: Trx-MC-FN-0110 (designed binder, not shown: large carriers; small tags and cut ends)
chain: PMCTQRKNRIALCRRDSDCTGACICRGNGYCG
modifications: disulfide 13-25, 19-31, 3-23; also: N-terminal thioredoxin fusion carrier (Trx, H6-tag, S-tag, thrombin site), no letters given
notes: as for B6
With B7, the binding result in assay [8] was “no binding (tested: 50 nM)”.

B8: Trx-MC-FN-0114 (designed binder)
peptide: PMCTQRKNRIRLCRRDSDCTGACICAGNGYCG
modifications: disulfide 13-25, 19-31, 3-23; also: N-terminal thioredoxin fusion carrier (Trx, H6-tag, S-tag, thrombin site), no letters given
notes: alanine scan variant of MC-FN-010; not shown: N-terminal carrier from vector pET-32-LibEx (E. coli thioredoxin-A, H6-tag, S-tag, thrombin site and their linkers)
In the case of B8, in assay [8], the binding result is “no binding (tested: 50 nM)”.

B9: Trx-MC-FN-0111 (designed binder, not shown: large carriers; small tags and cut ends)
chain: PMCTQRKNRIRACRRDSDCTGACICRGNGYCG
modifications: disulfide 13-25, 19-31, 3-23; also: N-terminal thioredoxin fusion carrier (Trx, H6-tag, S-tag, thrombin site), no letters given
notes: as for B6
For B9, the binding result in assay [8] was “no binding (tested: 50 nM)”.

B10: Trx-MC-FN-016 (thioredoxin fusion of cystine-knot miniprotein MC-FN-016) (designed binder)
chain: PMCTQRANRIRLCRRDSDCTGACICRGNGYCG
modifications: not fully specified (N-terminus, bridges); cysteine pairing not given here; also: N-terminal thioredoxin fusion carrier (Trx, H6-tag, S-tag, thrombin site), no letters given
notes: not shown: E. coli thioredoxin-A, fusion partner from vector pET-32-LibEx; H6-tag, s-tag and thrombin cleavage site of pET-32-LibEx
Regarding B10, the binding result in [9] is “no binding (tested: 50 nM)”.

B11: Trx-MC-FN-018 (designed binder, not shown: large carriers; small tags and cut ends)
chain: PMCTQRKNAIRLCRRDSDCTGACICRGNGYCG
modifications: disulfide 13-25, 19-31, 3-23; also: N-terminal thioredoxin fusion carrier (Trx, H6-tag, S-tag, thrombin site), no letters given
notes: as for B6
Take B11: the binding result in assay [8] is recorded as “no binding (tested: 50 nM)”.
